Results as given in patent publication US20210139581A1 (Alector, published 2021).
Positions count from the first letter of the chain named.

B1: AB-64.1.2 (antibody, V domains shown)
VH: QVQLVQSGAEVKKPGASVKISCKASGYTFTDYNLHWVRQAPGQGLEWIGFIYPSNRITGYAQKFQGRATLTVDNSTSTAYMELSSLRSEDTAVYYCARSDVDYFDYWGQGTLLTVSS
VL: DIVLTQSPDSLAVSLGERATINCRASQSVSTSTYSYMHWYQQKPGQPPKLLIKYASNLESGVPDRFSGSGSGTDFTLTISSLQAEDVAVYYCQHSWEIPLTFGQGTKLEIK
notes: Variant of AB-64.1
B2: AB-H63 (antibody, V domains shown)
VH: B1 VH with I20V, R56G, A68V, L70M, N74T, A79V, D100T, L113V
VL: B1 VL
notes: Humanized variant of murine 2F5.1
B3: AB-H64 (antibody, V domains shown)
VH: B1 VH with R56G, D100T
VL: B1 VL
notes: Humanized variant of murine 2F5.1; also called parental humanized antibody
B4: Chimeric Ab (antibody, V domains shown)
VH: EVQLQQSGPELVKPGASVKISCKASGYTFTDYNLHWVKLSHGKSLEWIGFIYPSNGITGYNQKFKNKATLTVDNSSSTAYMELRSLTSEDSAVYYCARSTVDYFDYWGQGTTLTVSS
VL: DIVLTQSPASLAVSLGQRATMSCRASQSVSTSTYSYMHWYQQKPGQPPKLLIKYASNLESGVPARFSGSGSGTDFTLNIHPVEEEDTATYYCQHSWEIPLTFGAGTKLELK
notes: Chimeric antibody with the variable regions of murine 2F5.1; also called parental antibody; comparator antibody
B5: AB-H14 (antibody, V domains shown)
VH: B1 VH with I20V, R56G, A68V, L70M, N74T, A79V, D100T, L113V
VL: DIQMTQSPSSLSASVGDRVTITCRASQSVSTSTYSYMHWYQQKPGKAPKLLIKYASNLESGVPSRFSGSGSGTDFTLTISSLQPEDFATYYCQHSWEIPLTFGQGTKLEIK
notes: as for B2
B6: AB-H2 (antibody, V domains shown)
VH: B1 VH with I20V, R56G, A68V, L70M, N74T, A79V, D100T, L113V
VL: B5 VL with K53Y
notes: as for B2
B7: AB-H9 (antibody, V domains shown)
VH: QVQLVQSGAELKKPGASVKVSCKASGYTFTDYNLHWVRQAPGQRLEWIGFIYPSNGITGYSQKFQGKATLTVDTSASTAYMELSSLRSEDTAVYYCARSTVDYFDYWGQGTTVTVSS
VL: B5 VL with K53Y
notes: as for B2
B8: AB-H15 (antibody, V domains shown)
VH: B1 VH with R56G, N74T, D100T
VL: B5 VL
notes: as for B2
B9: AB-H65 (antibody, V domains shown)
VH: B7 VH with L11V, R44G, I48M, S61A, K67R, A68V, L70M, V72R, A76T, A79V
VL: B1 VL
notes: as for B2
B10: AB-H66 (antibody, V domains shown)
VH: B1 VH with R56G, N74T, D100T, L112T, L113V
VL: B1 VL
notes: as for B2
B11: AB-64.1 (antibody, V domains shown)
VH: B1 VH with R56G
VL: B1 VL
B12: AB-64.1.8 (antibody, V domains shown)
VH: B1 VH with R56Q, T76A
VL: B1 VL
notes: Variant of AB-64.1

biological target: T1, human CD33 on primary human monocyte-derived dendritic cells (human, UniProt P20138 18-364); experiment: cell-based or functional assay
T1 sequence (P20138 18-364): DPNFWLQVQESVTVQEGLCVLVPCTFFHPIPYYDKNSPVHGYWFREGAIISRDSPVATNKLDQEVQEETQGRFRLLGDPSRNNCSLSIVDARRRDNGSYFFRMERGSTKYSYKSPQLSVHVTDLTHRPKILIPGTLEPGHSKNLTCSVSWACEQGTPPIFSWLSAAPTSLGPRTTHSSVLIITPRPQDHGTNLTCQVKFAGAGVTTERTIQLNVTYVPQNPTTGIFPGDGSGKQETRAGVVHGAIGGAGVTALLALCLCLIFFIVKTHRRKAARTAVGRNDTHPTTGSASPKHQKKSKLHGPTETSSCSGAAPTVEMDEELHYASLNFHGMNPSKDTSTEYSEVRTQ

| Binder | fold increase in potency in decreasing cell surface CD33, against AB-H64 [fold] | fold increase in potency in decreasing cell surface CD33, against Chimeric Ab [fold] |
| --- | --- | --- |
| B1 | 1.5 | 4.6 |

biological target: T1, human CD33 on primary human …; experiment: cell-based or functional assay; remark: another data set of the same source

| Binder | Maximal Downregulation (% CD33 remaining) [%] | Receptor downregulation (EC50) [nM] |
| --- | --- | --- |
| B2 | 20.3 | 0.032 |
| B3 | 22.4 | 0.029 |
| B4 | 24.1 | 0.0869 |

biological target: T1, human CD33 on primary human …; experiment: cell-based or functional assay; remark: another data set of the same source

| Binder | Receptor downregulation (EC50) [nM] |
| --- | --- |
| B5 | 0.042 |
| B6 | 0.0517 |
| B7 | 0.0234 |
| B8 | 0.0586 |
| B2 | 0.0041 |
| B3 | 0.0137 |
| B9 | 0.0481 |
| B10 | 0.0393 |
| B4 | 0.0743 |

biological target: T1, human CD33 on primary human …; experiment: cell-based or functional assay; remark: another data set of the same source

| Binder | Receptor downregulation (EC50) [nM] |
| --- | --- |
| B11 | 0.0185 |
| B3 | 0.0366 |

biological target: T1, human CD33 on primary human …; experiment: cell-based or functional assay; remark: another data set of the same source

| Binder | Maximal Downregulation (% CD33 remaining) [%] | Receptor downregulation (EC50) [nM] |
| --- | --- | --- |
| B11 | 27.3 | 0.0154 |
| B1 | 24.8 | 0.0189 |
| B12 | 30.1 | 0.0282 |
| B3 | 22.4 | 0.029 |
| B4 | 24.1 | 0.0869 |

biological target: T1, human CD33 on primary human …; experiment: cell-based or functional assay; remark: another data set of the same source

| Binder | Receptor downregulation (% remaining at 0.16 µg/mL antibody) [%] |
| --- | --- |
| B11 | 37.2 |
| B1 | 32.4 |
| B12 | 32.7 |

biological target: T1, human CD33 on primary human …; experiment: cell-based or functional assay; remark: another data set of the same source

| Binder | Maximal Downregulation (% CD33 remaining) [%] | Receptor downregulation (EC50) [nM] |
| --- | --- | --- |
| B5 | 15 | 0.151 |

biological target: T1, human CD33 on primary human …; experiment: cell-based or functional assay; remark: another data set of the same source

| Binder | Maximal Downregulation (% CD33 remaining) [%] | Receptor downregulation (EC50) [nM] |
| --- | --- | --- |
| B2 | 16.1 | 0.0726 |

biological target: T2, human CD33 (human, UniProt P20138 18-259, limits assumed); experiment: SPR (BIAcore), Fab over CD33 on C1 chip
T2 construct: Human CD33 immobilized on the BLI sensor tip or the BIAcore C1 chip; also called Siglec-3
Description: (§1) The affinity parameters for 10 of the 88 humanized antibodies (AB-H1, AB-H3, AB-H6, AB-H11, AB-H22, AB-H24, AB-H26, AB-H63, AB-H64, and AB-H71) were measured in a separate experiment by a more sensitive technique, surface plasmon resonance (BIAcore), and compared to Chimeric Ab and Chimeric Ab #2. BIAcore measurements were performed as follows: human CD33 was immobilized on the surface of a C1 chip, and Fabs were injected for 300 s to monitor association, followed by a 900 s flow in running buffer to monitor dissociation. The Fabs were measured at 5 concentrations: a high concentration of 27 nM and 3-fold serial dilutions.

T2 sequence (P20138 18-259 limits assumed): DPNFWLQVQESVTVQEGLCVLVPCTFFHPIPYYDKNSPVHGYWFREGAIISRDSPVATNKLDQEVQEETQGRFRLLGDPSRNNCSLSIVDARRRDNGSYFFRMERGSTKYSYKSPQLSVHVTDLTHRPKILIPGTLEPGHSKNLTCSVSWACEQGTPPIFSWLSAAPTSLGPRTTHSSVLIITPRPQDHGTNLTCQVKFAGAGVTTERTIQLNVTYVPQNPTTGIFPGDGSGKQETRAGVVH

| Binder | Fold Change to Chimeric Ab [fold] | Kd [nM] | koff [s⁻¹] | kon [M⁻¹ s⁻¹] |
| --- | --- | --- | --- | --- |
| B2 | 0.46 | 3.53 | 0.00263 | 744000 |
| B3 | 0.76 | 2.15 | 0.00221 | 1.03e+06 |
| B4 | – | 1.63 | 0.00162 | 995000 |

biological target: T2, human CD33; experiment: SPR (BIAcore), Fab over CD33 on C1 chip; remark: another data set of the same source
Description: as §1
In a separate experiment, as determined by the more sensitive BIAcore technique, affinity parameters of affinity matured antibodies derived from the humanized antibody AB-H64 were measured and were directly compared to that of the Chimeric Ab, according to the method described in Example 1 above.

| Binder | Fold Change to AB-H64 [fold] | Fold Change to Chimeric Ab [fold] | Kd [nM] | koff [s⁻¹] | kon [M⁻¹ s⁻¹] |
| --- | --- | --- | --- | --- | --- |
| B11 | 20.4 | 15.4 | 0.105 | 0.000485 | 4.61e+06 |
| B1 | 11.6 | 8.8 | 0.185 | 0.000507 | 2.74e+06 |
| B12 | 12.3 | 9.29 | 0.175 | 0.000634 | 3.62e+06 |
| B3 | – | 0.76 | 2.15 | 0.00221 | 1.03e+06 |
| B4 | – | – | 1.63 | 0.00162 | 995000 |

biological target: T2, human CD33; experiment: BLI (ForteBio), Fab 100 nM on immobilized CD33
Description: (§2) The affinities (KD) of the humanized antibodies for human CD33 were measured for each antibody by BioLayer Interferometry in a ForteBio assay according to standard techniques (Estep et al. (2013) MAbs 5(2): 270-8). […] The assay was carried out at room temperature.

| Binder | Kd [nM] |
| --- | --- |
| B5 | 3.42 |
| B6 | 3.24 |
| B7 | 3.5 |
| B8 | 5.45 |
| B2 | 4.07 |
| B3 | 4.08 |
| B9 | 8.57 |
| B10 | 5.54 |
| B4 | 5.22 |

biological target: T2, human CD33; experiment: BLI (ForteBio), Fab 100 nM on immobilized CD33; remark: another data set of the same source
Description: as §2
The affinities of AB-H64 and its variants (Table 5) for human CD33 were measured by Fortebio assay according to the method described in Example 1 above.

| Binder | Fold affinity improvement over parental Ab (AB-H64) [fold] | Kd [nM] |
| --- | --- | --- |
| B11 | 3.23 | 0.885 |
| B3 | – | 2.86 |

biological target: T2, human CD33; experiment: BLI (ForteBio), Fab 100 nM on immobilized CD33; remark: another data set of the same source
Description: as §2
The affinity parameters of two of the antibodies, 64.1.2 and 64.1.8, were measured in a separate experiment by BIAcore, where they were directly compared to the parental antibody, AB-64.1, the parental humanized antibody, AB-H64, and the Chimeric Ab.

| Binder | Kd [nM] |
| --- | --- |
| B11 | 0.499 |
| B1 | 0.902 |
| B12 | 0.802 |

biological target: T2, human CD33; experiment: BLI (ForteBio), Fab 100 nM on immobilized CD33; remark: another data set of the same source
Description: as §2
The affinities of AB-H14 and its affinity-matured variants (Table 15) and AB-H63 and its affinity-matured variants (Table 16), for human CD33 were measured by Fortebio assay according to the method described in Example 1 above.

| Binder | Kd [nM] | koff [s⁻¹] | kon [M⁻¹ s⁻¹] |
| --- | --- | --- | --- |
| B5 | 2.91 | 0.00115 | 397000 |
| B2 | 2.72 | 0.00168 | 615000 |

biological target: T2, human CD33; experiment: ligand-blocking red blood cell solid adhesion assay: antibody pre-incubated on plate-bound CD33-Fc, then binding of red blood cells (sialic acid-containing CD33 ligands) read as peroxidase activity (TMB, 450 nm), relative to no antibody; blocked ligand: CD33 ligands on red blood cells
Description: The affinity matured antibody, AB-64.1 and two of its variants, AB-64.1.2 and AB-64.1.8, were evaluated for their ability to compete with CD33 ligand for binding to CD33 using a red blood cell (RBC) solid adhesion assay, according to standard protocols (Kelm, et al. Current Biology, 1994). Red blood cells are highly decorated with glycoproteins containing sialic acids; therefore the ability of an antibody to block RBC binding to immobilized CD33 was used to determine ligand interference. Briefly, 96-well Immunolon plates were coated overnight with 5 μg/mL CD33-Fc, then were washed with PBS and blocked for one hour with binding buffer (PBS containing 0.25% BSA and 1 mM CaCl₂)). CD33 antibodies were added and incubated for one hour at room temperature with gentle rocking. After removal of unbound antibody, RBCs were added to each well at 3.0×10⁶ cells/mL and incubated at room temperature for one hour. Unbound RBCs were then carefully removed by washing three times with PBS, after which water was added to each well to induce hypotonic lysis of bound RBCs. The plate was transferred to −80° C. for 10 minutes, followed by 37° C. for 15 minutes. Quantification of bound RBCs was measured as peroxidase activity by adding TMB, followed by the addition of 2N sulfuric acid to stop the reaction. Signal was detected at 450 nm. Data was calculated as a percentage of RBC binding to plate-bound CD33-Fc in the absence of antibody.

| Binder | EC50 [nM] |
| --- | --- |
| B11 | 0.71 |
| B1 | 0.55 |
| B12 | 0.62 |
